What was measured:
[1] = molecular target: T1, human PD-1 expressed on cells (human, UniProt Q15116 25-288); test: cell-based or functional assay
[2] = molecular target: T1, human PD-1 expressed on cells; test: cell-based or functional assay; remark: listed apart in the source
recombinant human PD-1 = molecular target: T2, recombinant human PD-1 (human, UniProt Q15116 25-167, limits assumed); test: SPR, ProteOn XPR36
T2 construct: Soluble recombinant protein used in SPR; also called PDCD1; purified recombinant human PD-1
Experimental: Kinetics and binding affinities were measured using the ProteOn™ XPR36 (Biorad, Hercules, CA) surface plasmon resonance optical biosensor using material generated from transient transfection following single column purification.

T2 sequence (Q15116 25-167 limits assumed): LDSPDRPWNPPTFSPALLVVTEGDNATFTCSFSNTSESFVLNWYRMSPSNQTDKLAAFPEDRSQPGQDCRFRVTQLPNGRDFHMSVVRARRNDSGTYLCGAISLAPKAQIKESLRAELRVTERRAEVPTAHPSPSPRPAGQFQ
T1 sequence (Q15116 25-288): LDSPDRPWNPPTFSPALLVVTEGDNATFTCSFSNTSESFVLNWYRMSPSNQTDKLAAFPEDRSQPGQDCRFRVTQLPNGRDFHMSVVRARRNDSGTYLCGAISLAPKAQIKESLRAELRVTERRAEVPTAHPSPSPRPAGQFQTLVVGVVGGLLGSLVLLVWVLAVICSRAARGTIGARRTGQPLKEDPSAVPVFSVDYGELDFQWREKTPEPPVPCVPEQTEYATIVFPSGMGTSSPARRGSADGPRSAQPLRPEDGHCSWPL

Row | Binder | Emax Values (%), inhibition of NFAT activity [1] [%] | IC50 Values (nM), inhibition of NFAT activity [1] [nM] | Emax Values (%), Average, inhibition of IFNγ [2] [%] | IC50 Values (pM), Average, inhibition of IFNγ [2] [pM] | Kd (recombinant human PD-1) [nM] | koff (recombinant human PD-1) [s⁻¹] | kon (recombinant human PD-1) [M⁻¹ s⁻¹]
1 | 414A12 (mouse IgG1 backbone) (antibody, V domains shown) VH: QVQLQQPGAELVKPGASVKLSCKASGHTFTSNWIHWVKQRPGQGLEWIGEIDPSDSYTYYNQKFKGKATLTVDKSSSTAYMQLSSLTSEDSAVYSCACPGRNSNFAYWGQGTTLTVSS VL: DILMTQSPSSMSVSLGDTVSITCHASQGINNNIGWLQQKPGKSFKGLIYHKSNLEDGVPSRFSGSGSGADYSLTISSLESEDFADYYCVQYAQFPYTFGGGTKLEIK | 45 | 0.39 |  |  |  |  | 
2 | 814E10 (mouse IgG1 backbone) (antibody, V domains shown) VH: QIQLQQSGPELVKPGASVKISCKASGYTFTSYYIQWVKQRPGQGLEWIGWIYPGDGTTNYNENFKGKTTLTADKSSSTVYMLLSSLTSEDSAVYFCARYGLVPFDYWGQGTTLTVSS VL: DIQMTQTTSSLSASLGDRVTISCSASQDIINYLNWYQQKPDGTVKLLIYSTSSLHSGVSLRFSGSGSGTDYSLTISNLEPEDVATYYCHQYSQLPYTFGGGTKLEIK | 40.7 | 0.25 | 63 | 74.2 |  |  | 
3 | 820C3 (mouse IgG1 backbone) (antibody, V domains shown) VH: QIQLQQSGPELVKTGASVKISCKASGNTFNSNYIQWVKQRPGQGLEWIGWIYPGDGSTNYSEKFKGKTTLTADKSSSTAYMLVSSLTSEDSAVYFCARYGPVPFDYWGQGTTLSVSS VL: DIQMTQTTSSLSASLGDRVTISCSASQDIFNYLNWYQQKPDGTVKLLIYYTSSLHSGVPSRFSGSGSGTDFSLTISNLEPEDIATYYCQQYSNLPYTFGGGTKLEIK | 48.7 | 0.14 | 82 | 205 |  |  | 
4 | 723C2 (mouse IgG1 backbone) (antibody, V domains shown) VH: EVQLVESGGGLVQPGGSLKLSCAASGFTFSDYYMSWVRQTPEKRLEWVAYISSGGGSSYYPDSVKGRFTISRDNTKNTLYLQMSSLKSEDTAVYYCARLPHYFAMDCWGQGTSVTVSS VL: EIVLTQSPTTMAASPGEKITITCSASSSISSDYLHWYQQKPGFSPELLIYRTSNLASGVPARFSGSGSGTSYSLTIGSMEAEDVATYYCQQGTSLPRAFGGGTKLEIK | 43.7 | 0.14 | 74 | 122 |  |  | 
5 | 718C2 (mouse IgG1 backbone) (antibody, V domains shown) VH: EVQLQQSGPELVKPGASVKMSCKASGYTFTSYVMHWVRQKPGQGLEWIGYIDPDNDGTKYNEKFKGKATLTSDKSSSTAYMELSSLTSEDSAVYYCAREAYYGGLYGMDYWGQGSSVTVSS VL: DIVMSQSPSSLTVSVGEKVTMSCKSSQSLLYSSNQKIYLAWFQQKPGQSPKLLIYWASTRESGVPDRFTGSGSGTDFTLTISSVKAEDLAVYYCQQYYNSPLTFGAGTKLELK | 50.8 | 0.82 | 64.5 | 995 |  |  | 
6 | Chimeric 718C2 (antibody, V domains shown, Mouse variable domains in human IgG4Pro (Ser228Pro) backbone; also called 718C2 in human IgG4Pro backbone) VH: EVQLQQSGPELVKPGASVKMSCKASGYTFTSYVMHWVRQKPGQGLEWIGYIDPDNDGTKYNEKFKGKATLTSDKSSSTAYMELSSLTSEDSAVYYCAREAYYGGLYGMDYWGQGSSVTVSS VL: DIVMSQSPSSLTVSVGEKVTMSCKSSQSLLYSSNQKIYLAWFQQKPGQSPKLLIYWASTRESGVPDRFTGSGSGTDFTLTISSVKAEDLAVYYCQQYYNSPLTFGAGTKLELK | 44.4 | 0.38 |  |  | 3.98 | 0.000113 | 28400
7 | 703D10 (mouse IgG1 backbone) (antibody, V domains shown) VH: QVQLQQPGAELVKPGASVKLSCKASGYSFTSYWMHWVRQRPGQGLEWIGDIDPSNSYAYHSQKFKGKATLTVDKSSSTAYMQLSSLTSEDSAVYFCARADGTSHWYFDVWGAGTAVTVSS VL: QIVLTQSPGIMSASPGEKVTITCSANSSVSFMHWFQQKPGTSPKIWIYSTSSLASGVPARFSGSGSGTSYSLTISRMEAEDAATYYCQQRSSYPLTFGAGTKLELK | 47.4 | 10.9 | 65 | 3200 |  |  | 
8 | Chimeric 703D10 (antibody, V domains shown, Mouse variable domains in human IgG4Pro (Ser228Pro) backbone; also called 703D10 in human IgG4Pro backbone) VH: QVQLQQPGAELVKPGASVKLSCKASGYSFTSYWMHWVRQRPGQGLEWIGDIDPSNSYAYHSQKFKGKATLTVDKSSSTAYMQLSSLTSEDSAVYFCARADGTSHWYFDVWGAGTAVTVSS VL: QIVLTQSPGIMSASPGEKVTITCSANSSVSFMHWFQQKPGTSPKIWIYSTSSLASGVPARFSGSGSGTSYSLTISRMEAEDAATYYCQQRSSYPLTFGAGTKLELK | 41.9 | 0.39 |  |  | 9.49 | 0.000329 | 34600
9 | 708E4 (mouse IgG1 backbone) (antibody, V domains shown) VH: QIQLQQSGPELVKPGASVKISCKASGYTFTDYYLNWVKQRPGHGLEWIGWIYPGSSDTKHNENFKGKATLTVDTYSSTAYMQLGSLTSEDSAVYFCTRYSNFFFDYWGQGTTLTVSS VL: DIVMTQSQKFLSTSVGDRVRVTCKASQNVVTYVAWYQQKPGQSPKSLIYSASYRYSGVPDRFTGSGSGTYFTLTINNVQFEDLAEYFCQQYHSYPYTFGGGTKLEIK | 48.7 | 0.17 | 73.5 | 915 |  |  | 
10 | 313C12 (mouse IgG1 backbone) (antibody, V domains shown) VH: EVQLVESGGGLVKPGGSLKLSCAASGFTFSDYGMHWVRQTPEKGLEWIAYINSDSNTIYYADTVKGRFTISRDNARKTLYLQMTSLRSEDTAMYYCSPLVAPDYWGQGTTLTVSS VL: DIVMTQSQKFMSTTVGDRVSITCKASQNVGTAVAWYQQKPGQSPKLLIYSVSNRYTGVPDRFTGSGSGTDFTLTISNMQSEDLADYFCQQYSSYPFTFGAGTKLELK | 42.2 | 0.37 | 79 | 459 |  |  | 
11 | 306E6 (mouse IgG1 backbone) (antibody, V domains shown) VH: EVQLQQSGPELVKPGSSVKISCKASGYTFTDYYVNWVKQSHGKSLEWFGDIHPNSGDTTYNQKFKDKATLTVDKSSSTAYMELRSLTSEDSAVYYCARRRYDYDGFAYWGQGTLVTVSA VL: EIVMTQAAFSNPVTLGTSASISCRSSKSLLHRNGITYLYWYLQKPGQSPQLLIYEMSNLASGVPDRFSSSGSGTDFTLRISRVEAEDVGVYYCGQNLEFPLTFGAGTKLELK | 45.5 | 1.14 | 19.5 | 22 |  |  | 

Source: patent US20260070984A1 (Boehringer Ingelheim, published 2026)
